Laboratory results published in patent publication US20250057970A1, “TROP2 TARGETING ANTIBODY-DRUG CONJUGATE, AND PREPARATION METHOD AND USE THEREFOR” (priority 2020, published 2025).
Where two headings read alike, the source gives them in different places. Numbered stars: 1 amine (or outer) side, 2 acyl side, 3 side chain; on linkers, the order of the positions; unused ones are H or OH. Square brackets hold non-standard residues; d marks the D form. Peptide text beside a SMILES is read from it. * marks the point of attachment. Exatecan = CC[C@@]1(O)C(=O)OCc2c1cc1n(c2=O)Cc2c-1nc1cc(F)c(C)c3c1c2[C@@H](N*)CC3; Hexanoyl(6-maleimido) = O=C1C=CC(=O)N1CCCCCC(=O)*; NHCH2OCH2CO = O=C(COCN[*:1])[*:2]

Experiments:
NCI-N87 cell line = assay: Killing activity on NCI-N87 before and after cathepsin B digestion; assay type: cell-based, human; conditions: NCI-N87, 144 hours, read-out: IC50 (based on SN-38 equivalent)
Protocol: NCI-N87 cell line was selected as the experimental cell lines. After the sample was incubated in cathepsin B system (100 mM sodium acetate-acetic acid buffer, 4 mM dithiothreitol, pH 5.0) at 37° C. for 4 hours, the obtained sample was diluted with culture medium to different concentrations. 8 concentrations (1.5 to 10-fold dilution) were set from 70 nM to 0.003 nM of SN-38 concentration. […] The IC50 value was calculated by reading the […] data after chemical luminescent staining with CellTiter-Glo® Luminescent Cell Viability Assay.

cathepsin B = cathepsin B (Homo sapiens, UniProt P07858); conditions: for speed of enzyme digestion: pH range 5.0 to 7.0
From the text: Samples were taken at different time points and entered into a high-performance liquid chromatography-mass spectrometry instrument. The external standard method (with DXD as the external standard) was used to determine the release percentage of the drug.

[1] = target: T1, Tumor-associated calcium signal transducer 2 (UniProt P09758 27-323, limits assumed); assay: cell-based or functional assay
T1 sequence (looked up): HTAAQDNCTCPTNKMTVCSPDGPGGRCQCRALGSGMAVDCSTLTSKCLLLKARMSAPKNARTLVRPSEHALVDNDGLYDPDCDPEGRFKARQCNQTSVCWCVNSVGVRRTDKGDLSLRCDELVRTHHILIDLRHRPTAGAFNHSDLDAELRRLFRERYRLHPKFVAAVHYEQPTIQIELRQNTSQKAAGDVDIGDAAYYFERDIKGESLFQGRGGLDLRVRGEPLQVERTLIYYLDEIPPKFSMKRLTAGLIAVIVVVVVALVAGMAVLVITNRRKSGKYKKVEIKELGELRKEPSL

Molecule: CCc1c2c(nc3ccc(O)cc13)-c1cc3c(c(=O)n1C2)COC(=O)[C@]3(O)CC [SN-38, 7-ethyl-10-hydroxycamptothecin, reference compound]
- IC50 (NCI-N87 cell line; After Enzyme Digestion (cathepsin B, pH 5.0, 37° C., 4 hours)): 7.43 nM
- IC50 (NCI-N87 cell line; Before Enzyme Digestion): 7.18 nM

Molecule: CC[C@@]1(O)C(=O)OCc2c1cc1n(c2=O)Cc2c-1nc1cc(F)c(C)c3c1c2[C@@H](NC(=O)COCN(CCS(C)(=O)=O)C(=O)OCc1ccc(NC(=O)[C@H](C)NC(=O)[C@@H](NC(=O)CCCCCN2C(=O)C=CC2=O)C(C)C)cc1)CC3 [LE14]
- Percentage of drug release in the sample (cathepsin B; pH 5.0, 0 h): 13.82%
- Percentage of drug release in the sample (cathepsin B; pH 5.0, 1 h): 96.0%
- Percentage of drug release in the sample (cathepsin B; pH 5.0, 2 h): 98.35%
- Percentage of drug release in the sample (cathepsin B; pH 5.0, 3 h): 99.12%
- Percentage of drug release in the sample (cathepsin B; pH 5.0, 4 h): 99.21%
- Percentage of drug release in the sample (cathepsin B; pH 5.0, 5 h): 99.45%
- Percentage of drug release in the sample (cathepsin B; pH 5.0, 6 h): 98.23%
- Percentage of drug release in the sample (cathepsin B; pH 6.0, 0 h): 14.32%
- Percentage of drug release in the sample (cathepsin B; pH 6.0, 1 h): 96.12%
- Percentage of drug release in the sample (cathepsin B; pH 6.0, 2 h): 96.75%
- Percentage of drug release in the sample (cathepsin B; pH 6.0, 3 h): 98.52%
- Percentage of drug release in the sample (cathepsin B; pH 6.0, 4 h): 98.45%
- Percentage of drug release in the sample (cathepsin B; pH 6.0, 5 h): 98.92%
- Percentage of drug release in the sample (cathepsin B; pH 6.0, 6 h): 99.15%
- Percentage of drug release in the sample (cathepsin B; pH 7.0, 0 h): 16.59%
- Percentage of drug release in the sample (cathepsin B; pH 7.0, 1 h): 98.32%
- Percentage of drug release in the sample (cathepsin B; pH 7.0, 2 h): 98.45%
- Percentage of drug release in the sample (cathepsin B; pH 7.0, 3 h): 99.12%
- Percentage of drug release in the sample (cathepsin B; pH 7.0, 4 h): 99.12%
- Percentage of drug release in the sample (cathepsin B; pH 7.0, 5 h): 99.87%
- Percentage of drug release in the sample (cathepsin B; pH 7.0, 6 h): 99.47%
- speed of enzyme digestion (cathepsin B): quickly enzymatically digested

Molecule: CC[C@@]1(O)C(=O)OCc2c1cc1n(c2=O)Cc2c-1nc1cc(F)c(C)c3c1c2[C@@H](NC(=O)COCNC(=O)CNC(=O)[C@H](Cc1ccccc1)NC(=O)CNC(=O)CNC(=O)CCCCCN1C(=O)C=CC1=O)CC3 [GGFG-Dxd, reference compound] ({Hexanoyl(6-maleimido)}-GGFG[NHCH2OCH2CO]-Exatecan)
- speed of enzyme digestion (cathepsin B): slow speed of enzyme digestion

B1: FDA018-LE12 (antibody, human IgG1, kappa, V domains shown)
VH: QVQLQQSGSELKKPGASVKVSCKASGYTFTNYGMNWVKQAPGQGLKWMGWINTYTGEPTYTDDFKGRFAFSLDTSVSTAYLQISSLKADDTAVYFCARGGFGSSYWYFDVWGQGSLVTVSS
VL: DIQLTQSPSSLSASVGDRVSITCKASQDVSIAVAWYQQKPGKAPKLLIYSASYRYTGVPDRFSGSGSGTDFTLTISSLQPEDFAVYYCQQHYITPLTFGAGTKVEIKR
modifications: linker-drug LE12 (Dxd payload) coupled to cysteine sulfhydryl groups after reduction of the interchain disulfide bonds; DAR 3.90 for the whole antibody; sites not stated
- IC50 (nM), in vitro killing activity, BXPC3 Cell [1]: 0.68 nM
- IC50 (nM), in vitro killing activity, MDA-MB-468 Cell [1]: 1.03 nM
- IC50 (nM), in vitro killing activity, NCI-N87 Cell [1]: 1.12 nM

B2: FDA018-LE21 (antibody, human IgG1, kappa, V domains shown)
VH: B1 VH
VL: B1 VL
modifications: linker-drug LE21 coupled to cysteine sulfhydryl groups after reduction of the interchain disulfide bonds; DAR 4.05 for the whole antibody; sites not stated
- IC50 (nM), in vitro killing activity, BXPC3 Cell [1]: 1.23 nM
- IC50 (nM), in vitro killing activity, NCI-N87 Cell [1]: 1.23 nM

B3: FDA018-LE16 (antibody, human IgG1, kappa, V domains shown)
VH: B1 VH
VL: B1 VL
modifications: linker-drug LE16 coupled to cysteine sulfhydryl groups after reduction of the interchain disulfide bonds; DAR 4.03 for the whole antibody; sites not stated
- IC50 (nM), in vitro killing activity, BXPC3 Cell [1]: 1.58 nM
- IC50 (nM), in vitro killing activity, MDA-MB-468 Cell [1]: 1.64 nM
- IC50 (nM), in vitro killing activity, NCI-N87 Cell [1]: 1.35 nM

B4: FDA018-LE22 (antibody, human IgG1, kappa, V domains shown)
VH: B1 VH
VL: B1 VL
modifications: linker-drug LE22 coupled to cysteine sulfhydryl groups after reduction of the interchain disulfide bonds; DAR 4.00 for the whole antibody; sites not stated
- IC50 (nM), in vitro killing activity, BXPC3 Cell [1]: 1.69 nM
- IC50 (nM), in vitro killing activity, NCI-N87 Cell [1]: 3.25 nM

B5: FDA018-LE19 (antibody, human IgG1, kappa, V domains shown)
VH: B1 VH
VL: B1 VL
modifications: linker-drug LE19 coupled to cysteine sulfhydryl groups after reduction of the interchain disulfide bonds; DAR 4.13 for the whole antibody; sites not stated
- IC50 (nM), in vitro killing activity, MDA-MB-468 Cell [1]: 1.03 nM

B6: FDA018-LE17 (antibody, human IgG1, kappa, V domains shown)
VH: B1 VH
VL: B1 VL
modifications: linker-drug LE17 coupled to cysteine sulfhydryl groups after reduction of the interchain disulfide bonds; DAR 3.98 for the whole antibody; sites not stated
- IC50 (nM), in vitro killing activity, BXPC3 Cell [1]: 0.62 nM
- IC50 (nM), in vitro killing activity, MDA-MB-468 Cell [1]: 0.82 nM
- IC50 (nM), in vitro killing activity, NCI-N87 Cell [1]: 1.12 nM

B7: FDA018-LE13 (antibody, human IgG1, kappa, V domains shown)
VH: B1 VH
VL: B1 VL
modifications: linker-drug LE13 coupled to cysteine sulfhydryl groups after reduction of the interchain disulfide bonds; DAR 4.10 for the whole antibody; sites not stated
- IC50 (nM), in vitro killing activity, BXPC3 Cell [1]: 1.23 nM
- IC50 (nM), in vitro killing activity, MDA-MB-468 Cell [1]: 2 nM
- IC50 (nM), in vitro killing activity, NCI-N87 Cell [1]: 2.34 nM

B8: FDA018-LE14 (antibody, human IgG1, kappa, V domains shown)
VH: B1 VH
VL: B1 VL
modifications: linker-drug LE14 coupled to cysteine sulfhydryl groups after reduction of the interchain disulfide bonds; DAR 4.00 for the whole antibody; sites not stated
- IC50 (nM), in vitro killing activity, BXPC3 Cell [1]: 0.5 nM
- IC50 (nM), in vitro killing activity, MDA-MB-468 Cell [1]: 0.8 nM
- IC50 (nM), in vitro killing activity, NCI-N87 Cell [1]: 1.08 nM

B9: FDA018-LE15 (antibody, human IgG1, kappa, V domains shown)
VH: B1 VH
VL: B1 VL
modifications: linker-drug LE15 coupled to cysteine sulfhydryl groups after reduction of the interchain disulfide bonds; DAR 4.12 for the whole antibody; sites not stated
- IC50 (nM), in vitro killing activity, BXPC3 Cell [1]: 0.96 nM
- IC50 (nM), in vitro killing activity, MDA-MB-468 Cell [1]: 0.93 nM
- IC50 (nM), in vitro killing activity, NCI-N87 Cell [1]: 0.98 nM

B10: FDA018-GGFG-Dxd (antibody, human IgG1, kappa, V domains shown)
VH: B1 VH
VL: B1 VL
modifications: linker-drug GGFG-Dxd coupled to cysteine sulfhydryl groups after reduction of the interchain disulfide bonds; DAR 4.03 for the whole antibody; sites not stated
- IC50 (nM), in vitro killing activity, BXPC3 Cell [1]: 0.61 nM
- IC50 (nM), in vitro killing activity, MDA-MB-468 Cell [1]: 1.2 nM
- IC50 (nM), in vitro killing activity, NCI-N87 Cell [1]: 1.1 nM

B11: FDA018-LE20 (antibody, human IgG1, kappa, V domains shown)
VH: B1 VH
VL: B1 VL
modifications: linker-drug LE20 coupled to cysteine sulfhydryl groups after reduction of the interchain disulfide bonds; DAR 3.88 for the whole antibody; sites not stated
- IC50 (nM), in vitro killing activity, NCI-N87 Cell [1]: 1.15 nM

B12: FDA018-LE18 (antibody, human IgG1, kappa, V domains shown)
VH: B1 VH
VL: B1 VL
modifications: linker-drug LE18 coupled to cysteine sulfhydryl groups after reduction of the interchain disulfide bonds; DAR 3.96 for the whole antibody; sites not stated
- IC50 (nM), in vitro killing activity, MDA-MB-468 Cell [1]: 0.86 nM

B13: FDA018-LS13 (antibody, human IgG1, kappa, V domains shown)
VH: B1 VH
VL: B1 VL
modifications: linker-drug LS13 (SN-38 payload) coupled to cysteine sulfhydryl groups after reduction of the interchain disulfide bonds; DAR 3.97 for the whole antibody; sites not stated
- IC50 (nM), in vitro killing activity, BXPC3 Cell [1]: 61.3 nM
- IC50 (nM), in vitro killing activity, MDA-MB-468 Cell [1]: 67.4 nM
